# Laboratory results reported in paper PMC11969024 (2025).
# B1: peptide HD2 (from tick evasin EVA4) / CXCL13 (biotinylated, synthetic) (parent complex)
# chain 1: EEDDYTAYAPLTCYFT
# chain 2: VLEVYYTSLRCRCVQESSVFIPRRFIDRIQILPRGNGCPRKEIIVWKKNKSIVCVDPQAEWIQRMMEVLRKRSSSTLPVPVFKRKIP
# Variants of: B1
row,Variant,enrichment
1,chain 1 E2H,-3.83 log2 (difference from the parental peptide)
2,chain 1 E2M,-1.37 log2 (difference from the parental peptide)
3,chain 1 E2A,-1.7 log2 (difference from the parental peptide)
4,chain 1 E2D,1.8 log2 (difference from the parental peptide)
5,chain 1 E2Q,-2.09 log2 (difference from the parental peptide)
6,chain 1 E2S,-2.79 log2 (difference from the parental peptide)
7,chain 1 E2T,-3.42 log2 (difference from the parental peptide)
8,chain 1 E2N,-3.27 log2 (difference from the parental peptide)
9,chain 1 E2V,-1.21 log2 (difference from the parental peptide)
10,chain 1 D3E,0.606 log2 (difference from the parental peptide)
11,chain 1 D3P,-5.29 log2 (difference from the parental peptide)
12,chain 1 D3M,-5.03 log2 (difference from the parental peptide)
13,chain 1 D3I,-5.63 log2 (difference from the parental peptide)
14,chain 1 D3A,-5.8 log2 (difference from the parental peptide)
15,chain 1 D3S,-3.94 log2 (difference from the parental peptide)
16,chain 1 D3F,-4.35 log2 (difference from the parental peptide)
17,chain 1 D3N,-4.32 log2 (difference from the parental peptide)
18,chain 1 A9S,-1.23 log2 (difference from the parental peptide)
19,chain 1 A9I,-5.77 log2 (difference from the parental peptide)
20,chain 1 A9M,-0.268 log2 (difference from the parental peptide)
21,chain 1 A9Y,-1.21 log2 (difference from the parental peptide)
22,chain 1 A9T,-1.4 log2 (difference from the parental peptide)
23,chain 1 A9G,0.486 log2 (difference from the parental peptide)
24,chain 1 A9R,-4.49 log2 (difference from the parental peptide)
25,chain 1 A9W,1.81 log2 (difference from the parental peptide)

row,Variant,enrichment
1,chain 1 T12N,-4.95 log2 (difference from the parental peptide)
2,chain 1 T12H,-5.34 log2 (difference from the parental peptide)
3,chain 1 T12S,-6.76 log2 (difference from the parental peptide)
4,chain 1 T12A,-5.98 log2 (difference from the parental peptide)
5,chain 1 T12Q,-3.59 log2 (difference from the parental peptide)
6,chain 1 T12L,-1.72 log2 (difference from the parental peptide)
7,chain 1 T12D,-5.43 log2 (difference from the parental peptide)
8,chain 1 T12C,-5.24 log2 (difference from the parental peptide)
9,chain 1 L11S,-8.97 log2 (difference from the parental peptide)
10,chain 1 L11M,3.77 log2 (difference from the parental peptide)
11,chain 1 L11H,-5.03 log2 (difference from the parental peptide)
12,chain 1 L11A,-7.28 log2 (difference from the parental peptide)
13,chain 1 L11C,-5.19 log2 (difference from the parental peptide)
14,chain 1 L11N,-7.22 log2 (difference from the parental peptide)
15,chain 1 T6H,0.439 log2 (difference from the parental peptide)
16,chain 1 T6L,1.48 log2 (difference from the parental peptide)
17,chain 1 T6D,5.14 log2 (difference from the parental peptide)
18,chain 1 T6N,2.54 log2 (difference from the parental peptide)
19,chain 1 T6P,-0.391 log2 (difference from the parental peptide)
20,chain 1 T6Q,1.51 log2 (difference from the parental peptide)
21,chain 1 T6M,3.02 log2 (difference from the parental peptide)
22,chain 1 T6R,-1.88 log2 (difference from the parental peptide)
23,chain 1 T6V,-2.98 log2 (difference from the parental peptide)
24,chain 1 T6C,-9.9 log2 (difference from the parental peptide)
25,chain 1 T6W,5.97 log2 (difference from the parental peptide)

row,Variant,enrichment
1,chain 1 T6I,-3.55 log2 (difference from the parental peptide)
2,chain 1 T6G,4.13 log2 (difference from the parental peptide)
3,chain 1 T6K,-2.94 log2 (difference from the parental peptide)
4,chain 1 T6E,4.71 log2 (difference from the parental peptide)
5,chain 1 T6A,1.86 log2 (difference from the parental peptide)
6,chain 1 T16N,-0.837 log2 (difference from the parental peptide)
7,chain 1 T16E,1.77 log2 (difference from the parental peptide)
8,chain 1 T16L,-0.207 log2 (difference from the parental peptide)
9,chain 1 T16I,-0.117 log2 (difference from the parental peptide)
10,chain 1 T16V,-0.466 log2 (difference from the parental peptide)
11,chain 1 T16F,-1.23 log2 (difference from the parental peptide)
12,chain 1 T16H,0.0142 log2 (difference from the parental peptide)
13,chain 1 T16R,-7.96 log2 (difference from the parental peptide)
14,chain 1 T16Q,-1.21 log2 (difference from the parental peptide)
15,chain 1 T16K,-6.05 log2 (difference from the parental peptide)
16,chain 1 T16G,2.07 log2 (difference from the parental peptide)
17,chain 1 T16M,0.915 log2 (difference from the parental peptide)
18,chain 1 T16P,-0.922 log2 (difference from the parental peptide)
19,chain 1 T16W,-0.0649 log2 (difference from the parental peptide)
20,chain 1 Y14C,-6.09 log2 (difference from the parental peptide)
21,chain 1 F15A,-4.66 log2 (difference from the parental peptide)
22,chain 1 F15W,-3.2 log2 (difference from the parental peptide)
23,chain 1 F15E,-7.7 log2 (difference from the parental peptide)
24,chain 1 F15G,-9.13 log2 (difference from the parental peptide)
25,chain 1 F15M,-4.67 log2 (difference from the parental peptide)

row,Variant,enrichment
1,chain 1 F15R,-6.31 log2 (difference from the parental peptide)
2,chain 1 F15I,-5.03 log2 (difference from the parental peptide)
3,chain 1 F15V,-2.57 log2 (difference from the parental peptide)
4,chain 1 F15S,-6.75 log2 (difference from the parental peptide)
5,chain 1 F15L,-2.76 log2 (difference from the parental peptide)
6,chain 1 F15C,-7.62 log2 (difference from the parental peptide)
7,chain 1 F15P,-3.33 log2 (difference from the parental peptide)
8,chain 1 F15T,-5.1 log2 (difference from the parental peptide)
9,chain 1 E1M,-0.674 log2 (difference from the parental peptide)
10,chain 1 E1H,-3.17 log2 (difference from the parental peptide)
11,chain 1 E1G,-1.69 log2 (difference from the parental peptide)
12,chain 1 E1N,-1.5 log2 (difference from the parental peptide)
13,chain 1 E1L,-1.96 log2 (difference from the parental peptide)
14,chain 1 E1R,-5.75 log2 (difference from the parental peptide)
15,chain 1 E1K,-4.84 log2 (difference from the parental peptide)
16,chain 1 E1W,-0.426 log2 (difference from the parental peptide)
17,chain 1 E1Q,-0.204 log2 (difference from the parental peptide)
18,chain 1 E1D,2.17 log2 (difference from the parental peptide)
19,chain 1 E1F,-1.39 log2 (difference from the parental peptide)
20,chain 1 E1Y,0.38 log2 (difference from the parental peptide)
21,chain 1 E1V,-2.3 log2 (difference from the parental peptide)
22,chain 1 E1I,-1.63 log2 (difference from the parental peptide)
23,chain 1 Y5H,-5.1 log2 (difference from the parental peptide)
24,chain 1 Y5Q,-3.13 log2 (difference from the parental peptide)
25,chain 1 Y5N,-2.57 log2 (difference from the parental peptide)

row,Variant,enrichment
1,chain 1 Y5L,-1.23 log2 (difference from the parental peptide)
2,chain 1 Y5E,-0.259 log2 (difference from the parental peptide)
3,chain 1 Y5F,-0.242 log2 (difference from the parental peptide)
4,chain 1 Y5S,-3.07 log2 (difference from the parental peptide)
5,chain 1 A7H,0.018 log2 (difference from the parental peptide)
6,chain 1 A7D,5.88 log2 (difference from the parental peptide)
7,chain 1 A7Q,3.15 log2 (difference from the parental peptide)
8,chain 1 A7S,2.57 log2 (difference from the parental peptide)
9,chain 1 A7L,1.64 log2 (difference from the parental peptide)
10,chain 1 A7R,-1.49 log2 (difference from the parental peptide)
11,chain 1 A7N,2.99 log2 (difference from the parental peptide)
12,chain 1 A7Y,3.99 log2 (difference from the parental peptide)
13,chain 1 A7K,-1.87 log2 (difference from the parental peptide)
14,chain 1 A7E,5.25 log2 (difference from the parental peptide)
15,chain 1 A7T,2.08 log2 (difference from the parental peptide)
16,chain 1 P10L,-9.28 log2 (difference from the parental peptide)
17,chain 1 P10D,0.396 log2 (difference from the parental peptide)
18,chain 1 P10M,-7.27 log2 (difference from the parental peptide)
19,chain 1 P10S,-4.38 log2 (difference from the parental peptide)
20,chain 1 P10A,-4.03 log2 (difference from the parental peptide)
21,chain 1 P10G,1.04 log2 (difference from the parental peptide)
22,chain 1 C13P,-7.37 log2 (difference from the parental peptide)
23,chain 1 C13Q,-8.15 log2 (difference from the parental peptide)
24,chain 1 C13S,-4.26 log2 (difference from the parental peptide)
25,chain 1 C13Y,-6.52 log2 (difference from the parental peptide)

row,Variant,enrichment
1,chain 1 C13A,-7.08 log2 (difference from the parental peptide)
2,chain 1 C13N,-4.98 log2 (difference from the parental peptide)
3,chain 1 C13L,-10.1 log2 (difference from the parental peptide)
4,chain 1 C13T,-5.19 log2 (difference from the parental peptide)
5,chain 1 Y8D,0.221 log2 (difference from the parental peptide)
6,chain 1 Y8W,2.6 log2 (difference from the parental peptide)
7,chain 1 Y8N,-3.32 log2 (difference from the parental peptide)
8,chain 1 Y8F,0.328 log2 (difference from the parental peptide)
9,chain 1 Y8G,-3.39 log2 (difference from the parental peptide)
10,chain 1 Y8L,-2.2 log2 (difference from the parental peptide)
11,chain 1 Y8T,-4.45 log2 (difference from the parental peptide)
12,chain 1 Y8V,-4.22 log2 (difference from the parental peptide)
13,chain 1 Y8M,-1.68 log2 (difference from the parental peptide)
14,chain 1 Y8Q,-5.13 log2 (difference from the parental peptide)
15,chain 1 D4Q,-2.67 log2 (difference from the parental peptide)
16,chain 1 D4I,-4.76 log2 (difference from the parental peptide)
17,chain 1 D4G,-5 log2 (difference from the parental peptide)
18,chain 1 D4S,-5.37 log2 (difference from the parental peptide)
19,chain 1 D4V,-5.82 log2 (difference from the parental peptide)
20,chain 1 D4M,-5.4 log2 (difference from the parental peptide)
21,chain 1 D4A,-6.85 log2 (difference from the parental peptide)
22,chain 1 D4L,-4.8 log2 (difference from the parental peptide)
23,chain 1 D4P,-1.45 log2 (difference from the parental peptide)
24,chain 1 D4Y,-2.64 log2 (difference from the parental peptide)
25,chain 1 D4E,-0.811 log2 (difference from the parental peptide)
